In US20250163449A1, “HERBICIDE-TOLERANT GENES AND METHOD FOR USING SAME” (QINGDAO KINGAGROOT CHEMICAL COMPOUND CO., LTD., priority 2022, published 2025):

Legend:
[1] = Conversion rate of substrate compound A by E. coli expressing each engineered protein (HPLC, oxygenase activity); type: biochemical; settings: Reaction condition 2: bacteria cultured overnight, 8 times dose of substrate compound A of condition 1 added, react 3 hours the next day
rice (Jinjing 818) [2] = experiment: Transgenic rice seedlings, compound B added to medium at rooting phase; type: in vivo; settings: at least 1 μM compound B in medium (0.5 and 1 μM for SEQ ID NO: 42), 17-26 days
Method: Plant transformation vectors were constructed, each comprising a recombinant DNA molecule encoding an engineered protein (SEQ ID NO: 42/38/82/86/102/106/126/138/142) with the protein-coding sequence optimized for monocot expression, and rice (Jinjing 818) calli were transformed with these vectors using Agrobacterium tumifaciens and standard methods known in the art. Different concentrations of hormone herbicide compound B were added at the rooting phase of the rice seedlings to test hormone resistance, wherein, the test results of control Jinjing 818 plants and transgenic Jinjing 818 plants comprising the protein-coding gene of SEQ ID NO: 42 after adding 0.5 μM and 1 μM compound B to medium for 19 days are shown in FIG. 1. The test results of control Jinjing 818 plants and transgenic Jinjing 818 plants comprising the protein-coding genes of SEQ ID NO: 38/82/86/102/106/126/138/142 after adding 1 μM compound B to medium are shown in FIG. 5-11.

rice (Jinjing 818) [3] = experiment: Transgenic rice T0 plantlets in greenhouse sprayed with compound B; type: in vivo; settings: medicated medium test and greenhouse spraying test for T0 generation, compound B
Method: Then, the obtained regenerated TO generation transgenic plantlets grew in the greenhouse, and were sprayed with compound B at the growth stage when approximately two leaves unfolded and the third one just appearing. Resistance levels of plants were recorded and evaluated after spraying treatment, wherein, the test results of control Jinjing 818 plants and transgenic Jinjing 818 plants comprising the protein-coding gene of SEQ ID NO: 42 after applying 20 g, 40 g, 60 g, 80 g, 100 g, 120 g/mu (1 mu=1/15 ha) compound B for corresponding days (DAT) are shown in FIG. 2.

Arabidopsis thaliana = experiment: T2 transgenic Arabidopsis thaliana seeds screened on compound A medium; type: in vivo; settings: 0.15 μM compound A in medium, 11-24 days
Description: Engineered proteins were selected for Arabidopsis thaliana transformation and plant analysis. DNA constructs were transformed into Arabidopsis thaliana using Agrobacterium tumifaciens and standard methods known in the art.
The transformed TO transgenic plantlets grew in the greenhouse. T1 generation Arabidopsis thaliana plant seeds produced by transformation of all constructs were collected after approximately 60 days of growth. Transgenic T1 generation Arabidopsis thaliana plants were screened by adding HYG to medium for T1 generation. T1 plants were selfed to produce seeds of T2 generation Arabidopsis thaliana plants. Wherein, compound A was added to medium to screen and test T2 generation Arabidopsis thaliana plant seeds, that were produced by all constructs, comprising unique events screened by T1 generation.

Molecule | Conversion rate [1] [%] | drug resistance (tolerance to compound B) compared with wild-type plants (rice (Jinjing 818) [2]) | tolerance compared with the wild types (summary) (rice (Jinjing 818) [3]) | drug resistance compared with wild-type Arabidopsis thaliana (longer roots and larger leaves) (Arabidopsis thaliana)
SEQ ID NO: 82: RdpA mutant L82H + V187L + F182W + G103L + R180E (protein) MHAALSPLSQRFERIAVQPLTGVLGAEITGVDLREPLDDSTWNEILDAFHTYQVIYFPGQAITNEQHIAFSRRFGPVDPVPHLKSIEGYPEVQMIRREANESLRVIGDDWHTDSTFLDAPPAAVVMRAIDVPEHGGDTGFLSMYTAWETLSPTMQATIEGLNVVHSATRVFGSLYQAQNERWSNTSLKVMDVDAGDRETVHPLVVTHPGSGRKGLYVNQVYCQRIEGMTDAESKPLLQFLYEHATRFDFTCRVRWKKDQVLVWDNLCTMHRAVPDYAGKFRYLTRTTVGGVRPAR | 71.6 | exhibited better drug resistance | exhibited apparent tolerance | exhibited better drug resistance
SEQ ID NO: 126: RdpA mutant L82H + V187L + F182W + R104G + T112S + R180K (protein) MHAALSPLSQRFERIAVQPLTGVLGAEITGVDLREPLDDSTWNEILDAFHTYQVIYFPGQAITNEQHIAFSRRFGPVDPVPHLKSIEGYPEVQMIRREANESGGVIGDDWHSDSTFLDAPPAAVVMRAIDVPEHGGDTGFLSMYTAWETLSPTMQATIEGLNVVHSATRVFGSLYQAQNKRWSNTSLKVMDVDAGDRETVHPLVVTHPGSGRKGLYVNQVYCQRIEGMTDAESKPLLQFLYEHATRFDFTCRVRWKKDQVLVWDNLCTMHRAVPDYAGKFRYLTRTTVGGVRPAR | 92.6 | exhibited better drug resistance | exhibited apparent tolerance | exhibited better drug resistance
SEQ ID NO: 138: RdpA mutant L82H + V187L + F182W + G103L + R180T (protein) MHAALSPLSQRFERIAVQPLTGVLGAEITGVDLREPLDDSTWNEILDAFHTYQVIYFPGQAITNEQHIAFSRRFGPVDPVPHLKSIEGYPEVQMIRREANESLRVIGDDWHTDSTFLDAPPAAVVMRAIDVPEHGGDTGFLSMYTAWETLSPTMQATIEGLNVVHSATRVFGSLYQAQNTRWSNTSLKVMDVDAGDRETVHPLVVTHPGSGRKGLYVNQVYCQRIEGMTDAESKPLLQFLYEHATRFDFTCRVRWKKDQVLVWDNLCTMHRAVPDYAGKFRYLTRTTVGGVRPAR | 54.6 | exhibited better drug resistance | exhibited apparent tolerance | exhibited better drug resistance
SEQ ID NO: 142: RdpA mutant L82H + V187L + F182W + R104G + T112S + R180Q (protein) MHAALSPLSQRFERIAVQPLTGVLGAEITGVDLREPLDDSTWNEILDAFHTYQVIYFPGQAITNEQHIAFSRRFGPVDPVPHLKSIEGYPEVQMIRREANESGGVIGDDWHSDSTFLDAPPAAVVMRAIDVPEHGGDTGFLSMYTAWETLSPTMQATIEGLNVVHSATRVFGSLYQAQNQRWSNTSLKVMDVDAGDRETVHPLVVTHPGSGRKGLYVNQVYCQRIEGMTDAESKPLLQFLYEHATRFDFTCRVRWKKDQVLVWDNLCTMHRAVPDYAGKFRYLTRTTVGGVRPAR | 67 | exhibited better drug resistance | exhibited apparent tolerance | exhibited better drug resistance
SEQ ID NO: 102: RdpA mutant L82H + V187L + F182W + G103L + T112A (protein) MHAALSPLSQRFERIAVQPLTGVLGAEITGVDLREPLDDSTWNEILDAFHTYQVIYFPGQAITNEQHIAFSRRFGPVDPVPHLKSIEGYPEVQMIRREANESLRVIGDDWHADSTFLDAPPAAVVMRAIDVPEHGGDTGFLSMYTAWETLSPTMQATIEGLNVVHSATRVFGSLYQAQNRRWSNTSLKVMDVDAGDRETVHPLVVTHPGSGRKGLYVNQVYCQRIEGMTDAESKPLLQFLYEHATRFDFTCRVRWKKDQVLVWDNLCTMHRAVPDYAGKFRYLTRTTVGGVRPAR | 93.2 | exhibited better drug resistance | exhibited apparent tolerance | exhibited better drug resistance
SEQ ID NO: 86: RdpA mutant L82H + V187L + F182W + G103L + R180S (protein) MHAALSPLSQRFERIAVQPLTGVLGAEITGVDLREPLDDSTWNEILDAFHTYQVIYFPGQAITNEQHIAFSRRFGPVDPVPHLKSIEGYPEVQMIRREANESLRVIGDDWHTDSTFLDAPPAAVVMRAIDVPEHGGDTGFLSMYTAWETLSPTMQATIEGLNVVHSATRVFGSLYQAQNSRWSNTSLKVMDVDAGDRETVHPLVVTHPGSGRKGLYVNQVYCQRIEGMTDAESKPLLQFLYEHATRFDFTCRVRWKKDQVLVWDNLCTMHRAVPDYAGKFRYLTRTTVGGVRPAR | 76.8 | exhibited better drug resistance | exhibited apparent tolerance | exhibited better drug resistance
